Here are results for five molecules from US20040176285A1, “Tip39 polypeptides” (priority 2001, published 2004).

In assay [1] the target is T1, human PTH2 receptor (Homo sapiens, UniProt P49190).
T1 construct: expressed in transfected cells
The experiment in a line: Inhibition of agonist-stimulated cAMP accumulation in hPR2-20 LLCPK1 cells. It is filed as cell-based. The text has this: FIG. 8. […] Data are expressed as % of half-maximal cAMP accumulation and represent the results (mean±SE) of at least three independent experiments.
(In general: cAMP levels reflect the balance of adenylyl cyclase and phosphodiesterase activity.)

The target in assay [2] is T2, PTH1R (Homo sapiens, UniProt Q03431).
T2 sequence (Q03431 27-593): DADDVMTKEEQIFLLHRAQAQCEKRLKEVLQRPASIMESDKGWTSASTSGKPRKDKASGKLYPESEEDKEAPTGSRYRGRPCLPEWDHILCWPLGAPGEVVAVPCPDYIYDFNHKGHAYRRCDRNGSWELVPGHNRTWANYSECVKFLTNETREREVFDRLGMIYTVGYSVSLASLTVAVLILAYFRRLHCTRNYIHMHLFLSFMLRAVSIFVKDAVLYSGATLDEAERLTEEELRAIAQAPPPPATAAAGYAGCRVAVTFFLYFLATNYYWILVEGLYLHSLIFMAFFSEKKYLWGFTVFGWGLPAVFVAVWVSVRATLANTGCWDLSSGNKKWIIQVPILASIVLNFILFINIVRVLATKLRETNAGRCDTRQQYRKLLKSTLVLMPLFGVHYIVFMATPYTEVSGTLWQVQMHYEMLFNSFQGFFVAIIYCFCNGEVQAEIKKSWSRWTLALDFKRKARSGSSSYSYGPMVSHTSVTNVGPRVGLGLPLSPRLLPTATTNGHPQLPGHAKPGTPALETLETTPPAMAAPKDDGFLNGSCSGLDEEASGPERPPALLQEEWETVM
The experiment in a line: Ligand-stimulated cAMP accumulation in HKrk-B7 cells. It is filed as cell-based. The arrangement: expressed in transfected cells. Particulars: HKrk-B7 cells. Here is the method:
DMEM, Trypsin/EDTA, and penicillin G/streptomycin and horse serum were from Gibco/BRL, Life Technologies, Gaithersburg, Md. LLC-PK, expressing the recombinant human PTH1R (HKrk-B7 cells) and SaOS-2 cells expressing the wild-type PTH1R endogenously were cultured in DMEM supplemented with 10% heat-inactivated fetal bovine serum, 100 U/ml penicillin, 100 μg/ml streptomycin, as previously described (Gardella, T. J., et al., J. Biol. Chem. 271:19888-19893 (1996); Fukayama, S., et al., Endocrinology 134:1851-1858 (1994)); both cell lines were maintained in a humidified atmosphere containing 95% air and 5% CO2. After seeding, medium was replaced daily, until cells were used for radioligand binding or cAMP accumulation assays.
Na^125I (specific activity: 2,000 Ci/mmol) was purchased from DuPont/NEN, Boston, Mass. Fetal bovine serum, 3-isobutyl-1-methyl-xanthine (IBMX), and BSA were from Sigma, St. Louis, Mo., and trifluoroacetic acid (TFA) was from Pierce, Rockford, Ill. Radiolabeled rPTH(1-34) and PTHrP(1-36) were prepared by the chloramine-T method, followed by HPLC purification using a 30-50% ACN/0.1% TFA gradient over 30 minutes; radioreceptor assays were performed in 24-well plates as previously described (Gardella, T. J., et al., J. Biol. Chem. 271:19888-19893 (1996); Fukayama, S. et al., Endocrinology 134:1851-1858 (1994)). In brief, each well (final volume 500 μl) contained binding buffer (BB; 50 mM Tris-HCl (pH 7.7), 100 mM NaCl, 5 mM KCl, 2 mM CaCl2, 5% heat-inactivated horse serum, and 0.5% heat-inactivated fetal bovine serum), the ^125I-labeled PTH or PTHrP analog (100,000 to 200,000 cpm) was incubated in the absence or presence of increasing concentrations of unlabeled peptides. After 4 h at 16° C., buffer was completely removed, the cells were rinsed with cold BB and lysed with 1 M NaOH. The entire lysate was counted for γ-irradiation. Specific binding was determined after subtracting radioactivity bound in the presence of maximal concentrations of unlabeled competing peptide (10^−6 M). Agonist-dependent stimulation of cAMP accumulation by HKrk-B7 and SaOS-2 cells (48-well plates; stimulation at room temperature for 45 minutes) and the subsequent measurement of cAMP by radioimmunoassay was performed as previously described (Gardella, T. J., et al., J. Biol. Chem. 271:19888-19893 (1996); Bergwitz, C., et al., Endocrinology 139:723-732 (1998)). Data were analyzed and graphically illustrated using the graph-pad prism software package.
The values for EC50 and Vmax (mean±SE) are derived from at least three independent experiments.

The target of assay [3] is T2, PTH1R. The experiment in a line: Inhibition of agonist-stimulated cAMP accumulation in SaOS-2 cells. The assay is classed as cell-based. Set-up: expressed in transfected cells. Particulars: SaOS-2 cells (stated for both cell lines); agonists 0.15-0.3 nM. The text has this:
FIG. 4A-4F. Inhibition of agonist-stimulated cAMP accumulation in HKrk-B7 cells (FIG. 4A-4C) or SaOS-2 cells (FIG. 4D-4F). […] Data are expressed as % of half-maximal cAMP accumulation and represent the results (mean±SE) of at least three independent experiments.
Na^125I (specific activity: 2,000 Ci/mmol) was purchased from DuPont/NEN, Boston, Mass. Fetal bovine serum, 3-isobutyl-1-methyl-xanthine (IBMX), and BSA were from Sigma, St. Louis, Mo., and trifluoroacetic acid (TFA) was from Pierce, Rockford, Ill. Radiolabeled rPTH(1-34) and PTHrP(1-36) were prepared by the chloramine-T method, followed by HPLC purification using a 30-50% ACN/0.1% TFA gradient over 30 minutes; radioreceptor assays were performed in 24-well plates as previously described (Gardella, T. J., et al., J. Biol. Chem. 271:19888-19893 (1996); Fukayama, S. et al., Endocrinology 134:1851-1858 (1994)). […] The entire lysate was counted for γ-irradiation. Specific binding was determined after subtracting radioactivity bound in the presence of maximal concentrations of unlabeled competing peptide (10^−6 M). […] Data were analyzed and graphically illustrated using the graph-pad prism software package.

For assay [4], the target named is T1, human PTH2 receptor. Kind of assay: Ligand-stimulated cAMP accumulation in hPR2-20 LLCPK1 cells. The assay is classed as cell-based.
For assay [5], the target named is T3, human PTH/PTHrP receptor (PTH1R) (human, UniProt Q03431 27-593).
T3 construct: whole, on cells; HKrk-B7 cells about 10^6 receptors/cell; SaOS-2 about 30,000 receptors/cell; also called hPTH-1 receptor; PTH-1 receptor
T3 sequence (looked up): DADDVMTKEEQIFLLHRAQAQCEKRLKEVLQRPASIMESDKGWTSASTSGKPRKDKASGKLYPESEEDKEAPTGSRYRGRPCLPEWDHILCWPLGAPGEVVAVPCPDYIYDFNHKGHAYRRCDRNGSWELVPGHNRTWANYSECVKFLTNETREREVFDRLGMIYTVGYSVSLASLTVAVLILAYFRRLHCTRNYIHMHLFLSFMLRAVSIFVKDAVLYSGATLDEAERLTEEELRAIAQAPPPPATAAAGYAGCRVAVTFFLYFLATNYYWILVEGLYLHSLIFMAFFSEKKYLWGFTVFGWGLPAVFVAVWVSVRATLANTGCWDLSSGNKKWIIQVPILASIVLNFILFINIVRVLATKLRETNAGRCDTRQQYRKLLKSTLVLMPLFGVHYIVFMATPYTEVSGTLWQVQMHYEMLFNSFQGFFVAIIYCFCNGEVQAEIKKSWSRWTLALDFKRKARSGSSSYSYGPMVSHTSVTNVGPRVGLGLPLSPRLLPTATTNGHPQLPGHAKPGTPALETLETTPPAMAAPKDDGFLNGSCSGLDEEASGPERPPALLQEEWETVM
The experiment in a line: radioreceptor competition on HKrk-B7 cells, 125I-rPTH(1-34) or 125I-PTHrP(1-36). Here is the method: (§1) Na¹²⁵I (specific activity: 2,000 Ci/mmol) was purchased from DuPont/NEN, Boston, Mass. Fetal bovine serum, 3-isobutyl-1-methyl-xanthine (IBMX), and BSA were from Sigma, St. Louis, Mo., and trifluoroacetic acid (TFA) was from Pierce, Rockford, Ill. […] After 4 h at 16° C., buffer was completely removed, the cells were rinsed with cold BB and lysed with 1 M NaOH. The entire lysate was counted for γ-irradiation. Specific binding was determined after subtracting radioactivity bound in the presence of maximal concentrations of unlabeled competing peptide (10⁻⁶ M). Agonist-dependent stimulation of cAMP accumulation by HKrk-B7 and SaOS-2 cells (48-well plates; stimulation at room temperature for 45 minutes) and the subsequent measurement of cAMP by radioimmunoassay was performed as previously described (Gardella, T. J., et al., J. Biol. Chem. 271:19888-19893 (1996); Bergwitz, C., et al., Endocrinology 139:723-732 (1998)). Data were analyzed and graphically illustrated using the graph-pad prism software package.

Assay [6] concerns the target T3, human PTH/PTHrP receptor (PTH1R). Kind of assay: radioreceptor competition on HKrk-B7 cells. The method, then:
(§2) Specific binding was determined after subtracting radioactivity bound in the presence of maximal concentrations of unlabeled competing peptide (10⁻⁶ M). Agonist-dependent stimulation of cAMP accumulation by HKrk-B7 and SaOS-2 cells (48-well plates; stimulation at room temperature for 45 minutes) and the subsequent measurement of cAMP by radioimmunoassay was performed as previously described (Gardella, T. J., et al., J. Biol. Chem. 271:19888-19893 (1996); Bergwitz, C., et al., Endocrinology 139:723-732 (1998)). Data were analyzed and graphically illustrated using the graph-pad prism software package.

Assay [7] has the same target. Kind of assay: radioreceptor competition on HKrk-B7 cells; either tracer. Here is the method:
as §2

Assay [8] shares this target. The experiment in a line: radioreceptor competition on HKrk-B7 cells; tracer 125I-[Tyr36]PTHrP(1-36)amide. The method, then:
as §1

Assay [9] has the same target. Kind of assay: radioreceptor competition on HKrk-B7 cells; tracer 125I-rat [Nle8,21,Tyr34]PTH(1-34)amide. The method, then:
as §1

“Also recorded” adds a separate entry of the source. Where a SMILES comes first, the peptide text is derived from it. Where no end group is shown, it is not given here. Some results are limits rather than exact numbers.

T1 sequence (P49190 25-550): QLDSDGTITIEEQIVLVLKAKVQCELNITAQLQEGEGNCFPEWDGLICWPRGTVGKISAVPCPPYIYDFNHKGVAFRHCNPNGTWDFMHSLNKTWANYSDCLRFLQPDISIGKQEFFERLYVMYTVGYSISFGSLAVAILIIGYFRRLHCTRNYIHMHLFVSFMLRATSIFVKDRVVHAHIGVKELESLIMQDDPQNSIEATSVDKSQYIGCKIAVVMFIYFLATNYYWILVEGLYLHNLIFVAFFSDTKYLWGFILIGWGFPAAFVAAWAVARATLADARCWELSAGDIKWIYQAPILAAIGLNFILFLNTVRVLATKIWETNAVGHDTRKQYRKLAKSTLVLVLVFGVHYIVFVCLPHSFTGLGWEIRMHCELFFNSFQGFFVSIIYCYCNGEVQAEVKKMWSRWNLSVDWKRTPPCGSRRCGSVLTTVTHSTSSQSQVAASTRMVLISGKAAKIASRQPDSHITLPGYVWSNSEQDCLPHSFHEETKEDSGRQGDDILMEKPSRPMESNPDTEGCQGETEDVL

As for `CSCC[C@H](NC(=O)[C@H](Cc1ccc(O)cc1)NC(=O)[C@H](CO)NC(=O)[C@H](CC(N)=O)NC(=O)[C@H](CC(C)C)NC(=O)[C@H](Cc1c[nH]c2ccccc12)NC(=O)[C@H](Cc1c[nH]cn1)NC(=O)[C@H](CCCNC(=N)N)NC(=O)[C@H](CCCNC(=N)N)NC(=O)[C@H](CCC(=O)O)NC(=O)[C@H](CC(C)C)NC(=O)[C@H](C)NC(=O)[C@H](C)NC(=O)[C@H](CC(C)C)NC(=O)[C@H](CC(C)C)NC(=O)[C@H](CCCNC(=N)N)NC(=O)[C@H](C)NC(=O)[C@H](CCCNC(=N)N)NC(=O)[C@H](CCC(=O)O)NC(=O)[C@H](CCCNC(=N)N)NC(=O)[C@H](Cc1ccccc1)NC(=O)[C@H](C)N)C(=O)N[C@@H](Cc1c[nH]cn1)C(=O)N[C@@H](CCCCN)C(=O)N[C@@H](CC(C)C)C(=O)N[C@@H](CC(C)C)C(=O)N[C@H](C(=O)N[C@@H](CC(C)C)C(=O)N[C@@H](CC(=O)O)C(=O)N[C@@H](C)C(=O)N1CCC[C@H]1C(N)=O)C(C)C` [TIP(9-39)] (H-AFRERARLLAALERRHWLNSYMHKLLVLDAP-NH2), the “higher antagonist concentration required against human TIP39 than against PTH-(1-34)” value at human PTH2 receptor [1] (1 nM of either agonist) was “approximately 14 fold”. On human PTH2 receptor [1] (P2R LLCPK1 cells, FIG. 8), the “antagonism at the PTH2 receptor (in words)” value is given as “antagonist of the PTH2 receptor”. In addition, at PTH1R [2], the “stimulation of cAMP accumulation at the PTH1R (in words)” value was “lack of second messenger formation; also recorded: failed to stimulate cAMP accumulation”. Further, the “inhibition of agonist actions (in words)” value at PTH1R [3] is listed as “inhibited the actions of the three agonists”.

Regarding `CSCC[C@H](NC(=O)[C@H](Cc1ccc(O)cc1)NC(=O)[C@H](CO)NC(=O)[C@H](CC(=O)O)NC(=O)[C@H](CC(C)C)NC(=O)[C@H](Cc1c[nH]c2ccccc12)NC(=O)[C@H](CCC(=O)O)NC(=O)[C@H](CCCNC(=N)N)NC(=O)[C@H](CCCNC(=N)N)NC(=O)[C@H](CCC(=O)O)NC(=O)[C@H](CC(C)C)NC(=O)[C@H](C)NC(=O)[C@H](C)NC(=O)[C@H](CC(C)C)NC(=O)[C@H](CC(C)C)NC(=O)[C@H](CCCNC(=N)N)NC(=O)[C@H](C)NC(=O)[C@H](CCCNC(=N)N)NC(=O)[C@H](CCC(=O)O)NC(=O)[C@H](CCCNC(=N)N)NC(=O)[C@H](Cc1ccccc1)NC(=O)[C@H](C)NC(=O)[C@H](C)NC(=O)[C@H](CC(=O)O)NC(=O)[C@H](CC(=O)O)NC(=O)[C@H](C)NC(=O)[C@H](CC(C)C)NC(=O)[C@H](C)NC(=O)[C@H](CC(C)C)NC(=O)[C@@H](N)CO)C(=O)N[C@@H](CCC(N)=O)C(=O)N[C@@H](CCCCN)C(=O)N[C@@H](CC(C)C)C(=O)N[C@@H](CC(C)C)C(=O)N[C@@H](CC(C)C)C(=O)N[C@@H](CC(C)C)C(=O)N[C@@H](CC(=O)O)C(=O)N[C@@H](C)C(=O)N1CCC[C@H]1C(N)=O` [mouse TIP39] (H-SLALADDAAFRERARLLAALERREWLDSYMQKLLLLDAP-NH2), the “maximum cAMP accumulation” value at human PTH2 receptor [4] is on record as 133.7±3.9 pmol/well.

Take ALERRHWLNSYMHKLLVLDAP [TIP(19-39)]: the binding result in assay [5] was “no binding”.

Take ALADDAAFRERARLLAALERRHWLNSYMHKLLVLDAP (not fully specified (C-terminus)) [TIP(3-39)]: the “fold higher apparent binding affinity in comparison to the parent peptide TIP(1-39)” value in assay [6] is approximately 3 fold. In addition, in [7], the “fold improvement in apparent binding affinity relative to TIP(1-39)” value is not above 6 fold. The IC50 in [8] turned out to be 68 nM; in assay [9], 96 nM.

Regarding RHWLNSYMHKLLVLDAP [TIP(23-39)], the binding result in assay [5] is “no binding”.

The IC50 is the concentration at which inhibition is half-maximal.
